From paper PMC6780499, “Characterization, Recombinant Production and Structure-Function Analysis of NvCI, A Picomolar Metallocarboxypeptidase Inhibitor from the Marine Snail Nerita versicolor” (Marine Drugs, 2019)
No end group written: not given here.

Key:
[1] = biological target: T1, hCPD (Homo sapiens, UniProt O75976); assay: Ki determination, tight-binding inhibition of metallocarboxypeptidase; assay type: biochemical; conditions: NI: No inhibitory activity detected for the [I]0 range from 1 nM to 1 mM
T1 sequence (O75976 32-1380): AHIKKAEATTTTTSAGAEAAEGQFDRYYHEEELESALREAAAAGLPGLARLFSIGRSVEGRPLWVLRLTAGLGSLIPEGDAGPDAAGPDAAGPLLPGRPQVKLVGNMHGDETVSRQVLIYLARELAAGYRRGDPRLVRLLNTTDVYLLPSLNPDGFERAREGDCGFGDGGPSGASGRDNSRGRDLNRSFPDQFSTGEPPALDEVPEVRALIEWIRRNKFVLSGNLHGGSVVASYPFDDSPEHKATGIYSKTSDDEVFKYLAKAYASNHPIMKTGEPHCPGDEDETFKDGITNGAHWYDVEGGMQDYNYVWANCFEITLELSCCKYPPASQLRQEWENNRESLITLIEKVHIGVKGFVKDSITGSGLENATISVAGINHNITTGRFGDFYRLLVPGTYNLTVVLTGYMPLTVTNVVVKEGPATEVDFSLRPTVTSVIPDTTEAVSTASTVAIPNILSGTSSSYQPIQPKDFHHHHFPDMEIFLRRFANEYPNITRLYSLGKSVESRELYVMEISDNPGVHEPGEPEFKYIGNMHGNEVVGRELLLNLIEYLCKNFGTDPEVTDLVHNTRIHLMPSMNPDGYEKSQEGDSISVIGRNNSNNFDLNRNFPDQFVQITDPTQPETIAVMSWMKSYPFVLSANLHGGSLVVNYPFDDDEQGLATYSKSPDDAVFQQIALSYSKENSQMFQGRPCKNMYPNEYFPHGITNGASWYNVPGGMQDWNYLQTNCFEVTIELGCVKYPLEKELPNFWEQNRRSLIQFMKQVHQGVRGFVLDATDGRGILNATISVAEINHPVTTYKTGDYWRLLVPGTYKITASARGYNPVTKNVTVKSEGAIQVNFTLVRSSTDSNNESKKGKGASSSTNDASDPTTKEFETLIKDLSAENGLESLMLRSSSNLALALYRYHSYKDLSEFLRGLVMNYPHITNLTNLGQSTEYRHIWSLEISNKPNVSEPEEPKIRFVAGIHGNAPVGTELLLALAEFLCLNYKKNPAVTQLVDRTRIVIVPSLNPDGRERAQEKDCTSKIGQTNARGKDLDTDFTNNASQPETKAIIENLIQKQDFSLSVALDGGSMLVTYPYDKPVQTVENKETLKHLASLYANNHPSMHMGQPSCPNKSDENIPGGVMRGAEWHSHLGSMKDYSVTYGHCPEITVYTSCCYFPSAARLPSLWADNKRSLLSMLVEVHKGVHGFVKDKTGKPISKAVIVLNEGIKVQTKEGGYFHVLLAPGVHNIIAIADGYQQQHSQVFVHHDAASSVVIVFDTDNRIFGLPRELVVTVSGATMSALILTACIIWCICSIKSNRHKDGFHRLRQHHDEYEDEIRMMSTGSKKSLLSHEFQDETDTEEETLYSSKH
Experimental: (§1) Inhibitory activities against CPA- and CPB-type forms (bovine and human variants of CPA1, CPA2, CPA4, CPB1, and TAFI) were assayed for all extracts, subject to the experimental conditions that enzyme (E), substrate (S) and inhibitor (I) concentrations as well as the [I]/[E] ratio and preincubation time followed the requirements for tight-binding inhibitor assays. Similar approaches were followed to measure the activities of proteases of different catalytic types, like pepsin, papain, trypsin and subtilisin [45, 46, 47, 48]. All assays were performed in triplicate at 25 °C in a multiplexed manner. For 96-well assays an iEMS spectrophotometer reader/dispenser FM (Labsystems, Finland) was used with a final reaction volume of 250 μL. For cuvette assays, a Cary 400 Bio spectrophotometer (Varian Inc., Palo Alto, CA, USA) spectrophotometer was used with a final reaction volume of 1 ml. The reactions were followed at 5 s intervals for 5 min and recorded as initial velocities. In the protease inhibition assays, mixtures of activity buffer, biological sample and enzyme were preincubated at 25 °C for 10min, before substrate addition. The assay conditions were as follows: for CPA-like enzymes, 7.0nM CPA, 0.1mM AAFP substrate in 20mM Tris-HCl pH 7.5, 500mMNaCl, 1% v/v dimethyl sulfoxide (DMSO), 0.05% w/v BRIJ-35 was used. For CPB-like enzymes, CPB 3.0nM CPB, 0.1mM AAFA substrate and activity buffer of 20 mM Tris-HCl pH [50].
(§2) The Ki values of natural and recombinant NvCI against bCPA1, hCPA1, hCPA2, rat CPA3, hCPA4, hCPB1, bTAFI, hTAFI, hCPD and hCPZ were determined by measuring the enzymatic residual activity (Vi/V0 = a) at different inhibitor concentrations and using a fixed enzyme and substrate concentrations as described above, where vi and v0 are the fraction of enzymatic activity in the presence and absence of inhibitor, respectively, in terms of initial velocities. The determination of Ki values was carried out on equilibrium conditions ([E0]/Ki ≤ 10), using a previously determined preincubation time of 15 min, required to establish enzyme-inhibitor equilibrium. Working temperature was 37 °C. The best estimates of Ki values were obtained by fitting the experimental data to the equation for tight-binding inhibitors by non-linear regression using the GraphPad Prisma 5 software (GraphPad Software, Inc., San Diego, CA, USA) at p < 0.05. The real Ki values against each of these A/B-type MCPs were calculated according to the equation described by Morrison and Copeland [19, 20].

[2] = biological target: T2, hCPA2 (Homo sapiens, UniProt P48052); assay: as above; assay type: biochemical; conditions: tight-binding equation fit, equilibrium conditions; substrate AAFP 0.1mM, 20mM Tris-HCl pH 7.5, 500mM NaCl; preincubation 15 min; 37 °C; means (n = 3) ± SD
T2 sequence (P48052 115-419): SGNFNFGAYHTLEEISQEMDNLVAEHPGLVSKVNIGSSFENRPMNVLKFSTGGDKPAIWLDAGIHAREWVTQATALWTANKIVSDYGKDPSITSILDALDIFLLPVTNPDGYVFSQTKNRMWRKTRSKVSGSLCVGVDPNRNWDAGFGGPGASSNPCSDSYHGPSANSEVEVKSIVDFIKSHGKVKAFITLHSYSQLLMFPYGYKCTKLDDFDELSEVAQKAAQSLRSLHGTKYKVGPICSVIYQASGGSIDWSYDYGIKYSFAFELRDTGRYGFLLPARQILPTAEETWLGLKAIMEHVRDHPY
Experimental: as §1, §2

Ki [1]: > 1000 µM
Ki [2]: 0.00651 ± 6.86e-05 µM
Substance: NvCI: 53-residue, three-disulphide proteinaceous metallocarboxypeptidase inhibitor from the marine snail Nerita versicolor; major isoform; UniProt P86912 (FHVPDDRPCINPGRCPLVPDATCTFVCKAADNDFGYECQHVWTFEGQRVGCYA; disulfide (positions not given here); also: three disulphides, pairing not given here; UniProt P86912 1-53, looked up)
